The target in test [1] is T1, human TrkA ECD (human).
T1 chain: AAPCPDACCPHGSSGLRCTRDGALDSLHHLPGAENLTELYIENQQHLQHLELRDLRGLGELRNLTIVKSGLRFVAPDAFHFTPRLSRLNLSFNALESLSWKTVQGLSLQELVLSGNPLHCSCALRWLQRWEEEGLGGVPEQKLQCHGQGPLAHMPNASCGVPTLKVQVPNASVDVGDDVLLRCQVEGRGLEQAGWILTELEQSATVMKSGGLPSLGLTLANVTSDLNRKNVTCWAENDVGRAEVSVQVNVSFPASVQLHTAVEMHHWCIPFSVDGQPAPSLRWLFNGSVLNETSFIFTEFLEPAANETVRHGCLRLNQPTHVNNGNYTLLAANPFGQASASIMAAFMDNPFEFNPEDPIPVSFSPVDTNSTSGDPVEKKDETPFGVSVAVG
The test is described as follows: BLI. A general note: Biolayer interferometry detects binding as a change in optical thickness at a sensor tip.

For test [2], the target named is TrkA (cell surface) (human). The test is described as follows: FACS. For orientation: Flow cytometry measures light scatter and fluorescence of single cells or particles in a stream.
Test [3] addresses T1, human TrkA ECD. The test is described as follows: BLI.

Positions count from the first letter of the chain named. Where two headings read alike, the source gives them in different places.

Sequence of TrkA (cell surface) (human) (B2R6T5 whole entry, the tested form may be a part): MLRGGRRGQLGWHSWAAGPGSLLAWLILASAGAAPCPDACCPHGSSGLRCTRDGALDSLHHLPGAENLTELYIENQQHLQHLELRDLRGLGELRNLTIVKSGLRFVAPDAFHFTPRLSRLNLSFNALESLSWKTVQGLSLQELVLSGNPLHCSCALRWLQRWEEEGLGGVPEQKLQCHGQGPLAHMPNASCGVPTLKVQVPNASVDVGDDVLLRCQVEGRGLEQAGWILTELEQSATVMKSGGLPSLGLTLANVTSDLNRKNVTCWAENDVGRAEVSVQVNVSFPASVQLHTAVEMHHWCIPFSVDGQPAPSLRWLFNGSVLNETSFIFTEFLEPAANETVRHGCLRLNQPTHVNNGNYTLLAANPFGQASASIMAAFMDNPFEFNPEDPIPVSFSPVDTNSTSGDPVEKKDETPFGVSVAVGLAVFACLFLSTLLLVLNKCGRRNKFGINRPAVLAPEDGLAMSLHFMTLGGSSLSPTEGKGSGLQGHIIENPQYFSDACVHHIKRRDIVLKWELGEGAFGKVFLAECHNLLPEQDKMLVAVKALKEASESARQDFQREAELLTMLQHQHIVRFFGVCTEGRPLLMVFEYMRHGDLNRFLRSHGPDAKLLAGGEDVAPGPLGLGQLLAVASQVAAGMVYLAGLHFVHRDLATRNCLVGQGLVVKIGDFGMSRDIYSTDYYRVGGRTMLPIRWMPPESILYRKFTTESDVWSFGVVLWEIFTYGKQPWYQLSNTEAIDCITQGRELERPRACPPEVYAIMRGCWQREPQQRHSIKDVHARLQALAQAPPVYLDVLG

B1: Hu70D3A6-V12 (antibody, V domains shown)
VH: EVQLVESGGGLVKPGGSLRLSCAASGFTFTYYAMSWVRQAPGKGLEWVSSISGGGDVYYADSVKGRFTISRDNAKNTLYLQMNSLRAEDTAVYYCARGVGGNYFDYWGQGTLVTVSS
VL: DIQMTQSPSSLSASVGDRVTITCSASSSVSYMYWYQQKPGKAPKPLIYRTSNLASGVPSRFSGSGSGTDFTLTISSLQPEDFATYYCQLYHSYTPITFGQGTKLEIK
In test [1], B1 registered a dissociation constant (Kd) of 0.591 nM. Also, the EC50 in test [2] is roughly 0.289 nM.

B2: Hu99H4D5-V6 (antibody, V domains shown)
VH: B1 VH with T30S, M34I
VL: B1 VL with L89Q
On to B2, for which the Kd in test [1] was found to be 0.753 nM. This molecule had an EC50 in test [2] of roughly 0.362 nM.

B3: Chi70D3A6 (antibody, V domains shown)
VH: EVKLVESGGDLVKPGGSLKLSCTASGFTFTYYAMSWVRQTPEKRLEWVATISGGGDTYYLDSVKGRFTISRDNAGNILYLQMSSLRSEDTAMYYCARGVGGNFFDYWGQGSTLTVSS
VL: QIVLTQSPAIMSASPGEKVTISCSASSSVSYMYWYQQKPGSSPKPFIYRTSNLASGVPSRFSGSGSGTSYSLTVSTMEAEDAATYYCQLYHSYTPITFGAGTKLELK
Consider B3, for which binding in test [3] was put at a Kd of 0.771 nM.

B4: Chi99H4D5 (antibody, V domains shown)
VH: B3 VH with D10G, T23A, T30S, M34I, V37L, T50S, G54N, G75R, F103Y, S111T
VL: B3 VL with Q1D, L4M, F46L, S59A, V74I, L89Q, E105D
As for B4, the Kd in test [3] was 1.3 nM.

As a reminder, the Kd is the free concentration of one partner at which half of the binding sites on the other are occupied at equilibrium, for simple one-to-one binding. A high value points to lower affinity. As a reminder, the EC50 is the concentration needed to bring the measured effect to its halfway point. A higher EC50 goes with weaker potency.

The record behind these values is US20260365740 (published 2026).
